Measured values taken from the RNAGym collection of RNA variant scans (doi:10.1093/molbev/msab373).

B1: Azoarcus group I ribozyme (parent)
chain: GUGCCUUGCGCCGGGAAACCACGCAAGGGAUGGUGUCAAAUUCGGCGAAACCUAAGCGCCCGCCCGGGCGUAUGGCAACGCCGAGCCAAGCUUCGGCGCCUGCGCCGAUGAAGGUGUAGAGACUAGACGGCACCCACCUAAGGCAAACGCUAUGGUGAAGGCAUAGUCCAGGGAGUGGCGAAAGUCACACAAACCGG

Variants of: B1
Assay: reverse-splicing fitness (ratio to wild type); higher = more active; in vitro selection; Mg2+ level not given
Summary of the method: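 An in vitro group I ribozyme library with randomized positions was T7-transcribed and gel-purified. In triplicate, 10 pmol RNA in EPPS pH 7.5 was reacted with 50 pmoles of a 30-nt RNA substrate for 1 h at 37 °C across several added MgCl2 levels (1–48 mM), then stopped with EDTA. Products were reverse transcribed from a substrate-complementary primer, PCR-amplified and sequenced (HiSeq 4000). Fitness is a variant's read proportion after selection over that before, normalised to wild type.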

**Q.** For C82A A111U A120U A145G C150A C169U, which reverse-splicing fitness is on record?
**A.** 0.00475

**Q.** Which reverse-splicing fitness does the source give for C82A A111U A120U A145G C150A C169G here?
**A.** 0.00618

**Q.** Which reverse-splicing fitness does the source give for C82A A111U A120U A145G C150A C169A here?
**A.** 0.00807

**Q.** Which reverse-splicing fitness does the source give for C82A A111U A145C U176C here?
**A.** 0.126

**Q.** With C82A A111U A145C U176A as the variant, how does the reverse-splicing fitness read?
**A.** 0.0948

**Q.** Which reverse-splicing fitness does the source give for C82A A111U A145C U176G here?
**A.** 0.0253

**Q.** For C82A A111U A145C C150U C169G, which reverse-splicing fitness is on record?
**A.** 0.00788

**Q.** Which reverse-splicing fitness does the source give for C82A A111U A145C C150U C169A here?
**A.** 0.0081

**Q.** Which reverse-splicing fitness does the source give for C82A A111U A145C C150U C169U here?
**A.** 0.0112

**Q.** With C82A A111U A120U C150U U176C as the variant, how does the reverse-splicing fitness read?
**A.** 0.00953

**Q.** For C82A A111U A120U C150U U176G, which reverse-splicing fitness is on record?
**A.** 0.00345

**Q.** With C82A A111U A120U C150U U176A as the variant, how does the reverse-splicing fitness read?
**A.** 0.00753

**Q.** For C82A A111U A120U A145U C150U C169A, which reverse-splicing fitness is on record?
**A.** 0.00293

**Q.** With C82A A111U A120U A145U C150U C169U as the variant, how does the reverse-splicing fitness read?
**A.** 0.00362

**Q.** For C82A A111U A120U A145U C150U C169G, which reverse-splicing fitness is on record?
**A.** 0.00407

**Q.** For C82A A111U A145C C150A C169A U176G, which reverse-splicing fitness is on record?
**A.** 0.00855

**Q.** With C82A A111U A145C C150A C169A U176C as the variant, how does the reverse-splicing fitness read?
**A.** 0.00757

**Q.** Which reverse-splicing fitness does the source give for C82A A111U A145C C150A C169A U176A here?
**A.** 0.0149

**Q.** With C82A A111U A120U C150G as the variant, how does the reverse-splicing fitness read?
**A.** 0.00757

**Q.** With C82A A111U A120U C150U as the variant, how does the reverse-splicing fitness read?
**A.** 0.016

**Q.** For C82A A111U A120U C150A, which reverse-splicing fitness is on record?
**A.** 0.00876

**Q.** For C82A A111U A120U A145G C150U U176C, which reverse-splicing fitness is on record?
**A.** 0.0125

**Q.** Which reverse-splicing fitness does the source give for C82A A111U A120U A145G C150U U176A here?
**A.** 0.01

**Q.** Which reverse-splicing fitness does the source give for C82A A111U A120U A145G C150U U176G here?
**A.** 0.00393

**Q.** Which reverse-splicing fitness does the source give for C82A A111U A120U A145C C150U U176A here?
**A.** 0.00482

**Q.** With C82A A111U A120U A145C C150U U176C as the variant, how does the reverse-splicing fitness read?
**A.** 0.00533

**Q.** With C82A A111U A120U A145C C150U U176G as the variant, how does the reverse-splicing fitness read?
**A.** 0.00319

**Q.** For C82A A111U A120U A145G C150U, which reverse-splicing fitness is on record?
**A.** 0.0195

**Q.** With C82A A111U A120U A145G C150A as the variant, how does the reverse-splicing fitness read?
**A.** 0.00899

**Q.** Which reverse-splicing fitness does the source give for C82A A111U A120U A145G C150G here?
**A.** 0.00842

**Q.** Which reverse-splicing fitness does the source give for C82A A111U A120U A145G U176A here?
**A.** 0.00766

**Q.** With C82A A111U A120U A145G U176G as the variant, how does the reverse-splicing fitness read?
**A.** 0.00319

**Q.** With C82A A111U A120U A145G U176C as the variant, how does the reverse-splicing fitness read?
**A.** 0.0114

**Q.** For C82A A111U A120U A145U C150A C169U U176C, which reverse-splicing fitness is on record?
**A.** 0.00277

**Q.** With C82A A111U A120U A145U C150A C169U U176A as the variant, how does the reverse-splicing fitness read?
**A.** 0.00317

**Q.** Which reverse-splicing fitness does the source give for C82A A111U A120U A145U C150A C169U U176G here?
**A.** 0.00245

**Q.** Which reverse-splicing fitness does the source give for C82A A111U A145C C150A C169G here?
**A.** 0.00849

**Q.** For C82A A111U A145C C150A C169A, which reverse-splicing fitness is on record?
**A.** 0.00947

**Q.** Which reverse-splicing fitness does the source give for C82A A111U A145C C150A C169U here?
**A.** 0.011

**Q.** Which reverse-splicing fitness does the source give for C82A A111U A120U A145G C169G U176G here?
**A.** 0.00182

**Q.** With C82A A111U A120U A145G C169G U176A as the variant, how does the reverse-splicing fitness read?
**A.** 0.00391

**Q.** Which reverse-splicing fitness does the source give for C82A A111U A120U A145G C169G U176C here?
**A.** 0.00486

**Q.** With C82A A111U A120U A145U C150A C169G U176C as the variant, how does the reverse-splicing fitness read?
**A.** 0.00291

**Q.** For C82A A111U A120U A145U C150A C169G U176G, which reverse-splicing fitness is on record?
**A.** 0.00203

**Q.** For C82A A111U A120U A145U C150A C169G U176A, which reverse-splicing fitness is on record?
**A.** 0.00333

**Q.** Which reverse-splicing fitness does the source give for C82A A111U A120U C150A U176G here?
**A.** 0.0037

**Q.** For C82A A111U A120U C150A U176A, which reverse-splicing fitness is on record?
**A.** 0.00697

**Q.** Which reverse-splicing fitness does the source give for C82A A111U A120U C150A U176C here?
**A.** 0.00653

**Q.** Which reverse-splicing fitness does the source give for C82A A111U A120U C150A C169A U176A here?
**A.** 0.00679

**Q.** For C82A A111U A120U C150A C169A U176C, which reverse-splicing fitness is on record?
**A.** 0.00509

**Q.** Which reverse-splicing fitness does the source give for C82A A111U A120U C150A C169A U176G here?
**A.** 0.00306

**Q.** For C82A A111U A120U C169G U176G, which reverse-splicing fitness is on record?
**A.** 0.00236

**Q.** For C82A A111U A120U C169G U176C, which reverse-splicing fitness is on record?
**A.** 0.00453

**Q.** For C82A A111U A120U C169G U176A, which reverse-splicing fitness is on record?
**A.** 0.00417

**Q.** With C82A A111U A145C C169U U176A as the variant, how does the reverse-splicing fitness read?
**A.** 0.016

**Q.** With C82A A111U A145C C169U U176G as the variant, how does the reverse-splicing fitness read?
**A.** 0.00582

**Q.** Which reverse-splicing fitness does the source give for C82A A111U A145C C169U U176C here?
**A.** 0.0102

**Q.** For C82A A111U A120U A145C C169U, which reverse-splicing fitness is on record?
**A.** 0.00338

**Q.** With C82A A111U A120U A145C C169A as the variant, how does the reverse-splicing fitness read?
**A.** 0.00224

**Q.** With C82A A111U A120U A145C C169G as the variant, how does the reverse-splicing fitness read?
**A.** 0.00342

**Q.** Which reverse-splicing fitness does the source give for C82A A111U A120U A145U C150A C169G here?
**A.** 0.00274

**Q.** With C82A A111U A120U A145U C150A C169U as the variant, how does the reverse-splicing fitness read?
**A.** 0.00298

**Q.** Which reverse-splicing fitness does the source give for C82A A111U A120U A145U C150A C169A here?
**A.** 0.00286

**Q.** With C82A A111U A120U A145G C150U C169U U176G as the variant, how does the reverse-splicing fitness read?
**A.** 0.00286

**Q.** With C82A A111U A120U A145G C150U C169U U176C as the variant, how does the reverse-splicing fitness read?
**A.** 0.00506

**Q.** With C82A A111U A120U A145G C150U C169U U176A as the variant, how does the reverse-splicing fitness read?
**A.** 0.00537

**Q.** For C82A A111U A120U A145G C150G U176C, which reverse-splicing fitness is on record?
**A.** 0.00894

**Q.** Which reverse-splicing fitness does the source give for C82A A111U A120U A145G C150G U176A here?
**A.** 0.00697

**Q.** With C82A A111U A120U A145G C150G U176G as the variant, how does the reverse-splicing fitness read?
**A.** 0.00434

**Q.** Which reverse-splicing fitness does the source give for C82A A111U A120U A145U C150U C169A U176A here?
**A.** 0.00366

**Q.** Which reverse-splicing fitness does the source give for C82A A111U A120U A145U C150U C169A U176G here?
**A.** 0.00243

**Q.** Which reverse-splicing fitness does the source give for C82A A111U A120U A145U C150U C169A U176C here?
**A.** 0.00305

**Q.** Which reverse-splicing fitness does the source give for C82A A111U A120U A145C C169G U176A here?
**A.** 0.00281

**Q.** For C82A A111U A120U A145C C169G U176C, which reverse-splicing fitness is on record?
**A.** 0.00232

**Q.** For C82A A111U A120U A145C C169G U176G, which reverse-splicing fitness is on record?
**A.** 0.00198

**Q.** Which reverse-splicing fitness does the source give for C82A A111U A145C C150G C169G U176G here?
**A.** 0.00637

**Q.** Which reverse-splicing fitness does the source give for C82A A111U A145C C150G C169G U176A here?
**A.** 0.00985

**Q.** Which reverse-splicing fitness does the source give for C82A A111U A145C C150G C169G U176C here?
**A.** 0.00829

**Q.** For C82A A111U A120U A145U C150G C169A U176A, which reverse-splicing fitness is on record?
**A.** 0.00398

**Q.** For C82A A111U A120U A145U C150G C169A U176C, which reverse-splicing fitness is on record?
**A.** 0.00325

**Q.** Which reverse-splicing fitness does the source give for C82A A111U A120U A145U C150G C169A U176G here?
**A.** 0.00285

**Q.** Which reverse-splicing fitness does the source give for C82A A111U A120U A145U C150A U176G here?
**A.** 0.00236

**Q.** With C82A A111U A120U A145U C150A U176C as the variant, how does the reverse-splicing fitness read?
**A.** 0.00625
